# Target: Lys38 (UniProt position 38, …)
# Test: kinetics
# Conditions: 19°C; 50 mM/50 mM TRIS/HEPES (pH 8.3-6.3), TRIS/MES (pH 6.6, 5.8), TRIS/citric acid (pH 5.3-2.8); Transporter in the native yeast plasma membrane, turning over with 1 mM L-lactate. The authors link the 7.43 inflection to Lys 38 in the substrate-unbound state.
protein,measurement,value
Monocarboxylate transporter 1 (MCT1) (Homo sapiens) (protein) MPPAVGGPVGYTPPDGGWGWAVVIGAFISIGFSYAFPKSITVFFKEIEGIFHATTSEVSWISSIMLAVMYGGGPISSILVNKYGSRIVMIVGGCLSGCGLIAASFCNTVQQLYVCIGVIGGLGLAFNLNPALTMIGKYFYKRRPLANGLAMAGSPVFLCTLAPLNQVFFGIFGWRGSFLILGGLLLNCCVAGALMRPIGPKPTKAGKDKSKASLEKAGKSGVKKDLHDANTDLIGRHPKQEKRSVFQTINQFLDLTLFTHRGFLLYLSGNVIMFFGLFAPLVFLSSYGKSQHYSSEKSAFLLSILAFVDMVARPSMGLVANTKPIRPRIQYFFAASVVANGVCHMLAPLSTTYVGFCVYAGFFGFAFGWLSSVLFETLMDLVGPQRFSSAVGLVTIVECCPVLLGPPLLGRLNDMYGDYKYTYWACGVVLIISGIYLFIGMGINYRLLAKEQKANEQKKESKEEETSIDVAGKPNEVTKAAESPDQKDTDGGPKEEESPV,pKa,7.43

# From paper PMC9982067
